The values that follow come from publication PMC6455120 (2019).

For this assay, the target named is T1, MERS-CoV spike ectodomain ECD (Middle East respiratory …, UniProt K9N5Q8).
T1 chain: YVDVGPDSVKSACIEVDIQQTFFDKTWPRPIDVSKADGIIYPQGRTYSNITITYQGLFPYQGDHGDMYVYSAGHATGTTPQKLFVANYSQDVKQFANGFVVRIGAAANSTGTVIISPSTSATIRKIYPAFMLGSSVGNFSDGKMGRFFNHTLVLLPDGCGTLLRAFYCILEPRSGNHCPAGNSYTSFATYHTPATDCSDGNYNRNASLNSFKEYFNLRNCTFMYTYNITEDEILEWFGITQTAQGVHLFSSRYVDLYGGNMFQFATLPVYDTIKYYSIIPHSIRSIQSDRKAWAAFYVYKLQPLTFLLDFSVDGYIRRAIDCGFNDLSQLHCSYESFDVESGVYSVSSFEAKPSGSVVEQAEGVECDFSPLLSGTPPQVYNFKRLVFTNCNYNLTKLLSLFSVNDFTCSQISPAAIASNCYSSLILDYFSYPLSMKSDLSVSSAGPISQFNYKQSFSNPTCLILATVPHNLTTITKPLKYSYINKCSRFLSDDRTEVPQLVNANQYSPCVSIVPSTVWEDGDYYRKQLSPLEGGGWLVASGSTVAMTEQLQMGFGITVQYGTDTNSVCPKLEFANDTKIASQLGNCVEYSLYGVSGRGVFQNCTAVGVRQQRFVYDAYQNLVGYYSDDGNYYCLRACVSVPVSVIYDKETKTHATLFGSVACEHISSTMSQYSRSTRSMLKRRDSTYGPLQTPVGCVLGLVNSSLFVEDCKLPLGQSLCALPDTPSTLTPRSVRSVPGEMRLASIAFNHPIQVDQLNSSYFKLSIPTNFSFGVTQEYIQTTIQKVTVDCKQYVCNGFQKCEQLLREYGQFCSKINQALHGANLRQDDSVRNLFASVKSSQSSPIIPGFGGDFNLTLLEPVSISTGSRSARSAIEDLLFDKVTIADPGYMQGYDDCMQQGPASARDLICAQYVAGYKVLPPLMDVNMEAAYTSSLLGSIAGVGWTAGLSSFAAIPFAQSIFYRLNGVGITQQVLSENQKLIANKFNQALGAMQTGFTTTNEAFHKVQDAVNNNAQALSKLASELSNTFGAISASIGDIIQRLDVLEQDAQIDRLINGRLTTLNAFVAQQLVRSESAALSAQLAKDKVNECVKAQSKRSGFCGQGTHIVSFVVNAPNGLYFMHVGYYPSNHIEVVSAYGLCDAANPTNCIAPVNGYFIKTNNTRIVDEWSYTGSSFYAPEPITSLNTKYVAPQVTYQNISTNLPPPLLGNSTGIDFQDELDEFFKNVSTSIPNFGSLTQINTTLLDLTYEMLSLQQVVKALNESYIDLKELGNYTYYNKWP

B1: DPP4 (protein)
chain: SRKTYTLTDYLKNTYRLKLYSLRWISDHEYLYKQENNILVFNAEYGNSSVFLENSTFDEFGHSINDYSISPDGQFILLEYNYVKQWRHSYTASYDIYDLNKRQLITEERIPNNTQWVTWSPVGHKLAYVWNNDIYVKIEPNLPSYRITWTGKEDIIYNGITDWVYEEEVFSAYSALWWSPNGTFLAYAQFNDTEVPLIEYSFYSDESLQYPKTVRVPYPKAGAVNPTVKFFVVNTDSLSSVTNATSIQITAPASMLIGDHYLCDVTWATQERISLQWLRRIQNYSVMDICDYDESSGRWNCLVARQHIEMSTTGWVGRFRPSEPHFTLDGNSFYKIISNEEGYRHICYFQIDKKDCTFITKGTWEVIGIEALTSDYLYYISNEYKGMPGGRNLYKIQLSDYTKVTCLSCELNPERCQYYSVSFSKEAKYYQLRCSGPGLPLYTLHSSVNDKGLRVLEDNSALDKMLQNVQMPSKKLDFIILNETKFWYQMILPPHFDKSKKYPLLLDVYAGPCSQKADTVFRLNWATYLASTENIIVASFDGRGSGYQGDKIMHAINRRLGTFEVEDQIEAARQFSKMGFVDNKRIAIWGWSYGGYVTSMVLGSGSGVFKCGIAVAPVSRWEYYDSVYTERYMGLPTPEDNLDHYRNSTVMSRAENFKQVEYLLIHGTADDNVHFQQSAQISKALVDVGVDFQAMWYTDEDHGIASSTAHQHIYTHMSHFIKQCFSLP
The Kd is a measure of binding affinity in units of concentration. The low end stands for tighter binding, the high end for weaker binding. With B1, the Kd is 3.42 nM.
